Reference: patent publication US10202593B2, “Evolved sortases and uses thereof” (President and Fellows of Harvard College, priority 2013, dated 2019)
Several values for one entry are separate records, joined by “and”; a condition that tells them apart may be missing. Identical values can stand only once. Like-named read-outs stand apart in the source and are kept apart here.

What was measured:
Type in all cases: biochemical
[1] = tested on: LPESG (Abz-LPESGK(Dnp)-CONH2); test: In vitro sortase kinetics HPLC assay, LPESG substrate; settings: for Km: read-out: Km
Method in brief: (§1)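 Abz-LXEXGK(Dnp) peptides in 300 mM Tris pH 7.5, 150 mM NaCl, 5 mM CaCl2, 5% DMSO, GGG; 22.5° C., acid-quenched, converted fraction by reverse-phase HPLC peak areas. kcat and Km from eight substrate concentrations fit to Michaelis-Menten; KH at 1 mM substrate over eight GGG levels.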

[2] = tested on: LSETG; test: In vitro sortase kinetics HPLC assay, LSETG substrate
Procedure: See below for details on sortase expression and purification, and on the synthesis of Abz-LPETGK(Dnp)-CONH2 (SEQ ID NO: 19). […] Reactions were initiated with the addition of enzyme and incubated at 22.5° C. for 3 to 20 minutes before quenching with 0.5 volumes of 1 M HCl. Five to ten nmol of peptide from the quenched reactions were injected onto an analytical reverse-phase Eclipse XDB-C18 HPLC column (4.6×150 mm, 5 μm, Agilent Technologies) and chromatographed using a gradient of 10 to 65% acetonitrile with 0.1% TFA in 0.1% aqueous TFA over 13 minutes. Retention times under these conditions for the Abz-LPETGK(Dnp)-CONH2 (SEQ ID NO: 19) substrate, the released GKDnp peptide, and the Abz-LPETGGG-COOH (SEQ ID NO: 20) product were 12.8, 10.4, and 9.1 min, respectively. To calculate the percent conversion, the ratio of the integrated areas of the Abz-LPETGGG-COOH (SEQ ID NO: 20) and Abz-LPETGK(Dnp)-CONH2 (SEQ ID NO: 19) peptide Abs220 peaks was compared to a standard curve generated by mixing the product and starting peptide in known ratios. To determine […] and Km, reaction rates were fit to the Michaelis-Menten equation using OriginPro 7.0 software. All kinetics values reported represent the average of at least three measurements. Percent conversion was also calculated by using the ratio of the integrated areas of the GK(Dnp)-CONH2 and Abz-LPETGK(Dnp)-CONH2 peptide Abs355 peaks were compared directly (Example 5). To determine kcat and Km, LPETG, reaction rates were fit to the Michaelis-Menten equation using Microsoft Excel using the Solver add-in. To determine Km,GGG and KH, reaction rates were fit to the modified Michaelis-Menten, for which KH is as defined when KH<<Km,GGG.
Assays to determine eSrtA, eSrtA(2A-9) and eSrtA(4S-9) specificity were performed by preparing 10 μM stocks of Abz-LXEXGK(Dnp) (SEQ ID NO: 75) peptides in 300 mM Tris pH 7.5, 150 mM NaCl, 5 mM CaCl2, 5% v/v DMSO, and 100 mM Gly-Gly-Gly-COOH (GGG). Reactions were performed by adding eSrtA(2A-9) to a final concentration of 450 nM, eSrtA(4S-9) to a final concentration of 115 nM or eSrtA to a final concentration of 47.5 nM and a final volume of 100 μL, then incubating at 22.5° C. for 15 minutes. Reactions were quenched by the addition of 0.2 volumes of 5 M HCl, then were injected onto an analytical reverse-phase Eclipse XDB-C18 HPLC column (4.6×150 mm, 5 μm, Agilent Technologies) and chromatographed using a gradient of 10 to 65% acetonitrile with 0.1% TFA in 0.1% aqueous TFA over 13 minutes. Retention times under these conditions for the Abz-LPETGK(Dnp)-CONH2 (SEQ ID NO: 19) substrate, the released GKDnp peptide, and the Abz-LPETGGG-COOH (SEQ ID NO: 20) product were 12.8, 10.4, and 9.1 min, respectively, while the remaining Abz-LXEXGK(Dnp)-CONH2 (SEQ ID NO: 74) substrates varied in retention time between 9 and 13 minutes. To calculate the percent conversion, the ratio of the integrated areas of the GK(Dnp)-CONH2 and Abz-LPETGK(Dnp)-CONH2 (SEQ ID NO: 19) peptide Abs355 peaks were compared directly. Subsequent determination of kcat/Km and KH were performed as described for in vitro SrtA characterization.
The original pentamutant comprising the mutations P94R, D160N, D165A, K190E, and K196T is referred to as eSrtA. Sortase variants herein were evolved using eSrtA as the parent enzyme in the evolution experiments. In some cases, an evolved sortase comprises a N160K mutation instead of a D160N or a T196S mutation instead of a K196T. Parameters are reported with their standard deviations as determined from three technical replicates. kcat, Km and kcat/Km parameters were determined at 100 mM GGG concentration, while Km,GGG and KH parameters were determined at 1 mM concentration of the listed substrate.

[3] = tested on: LPETG (Abz-LPETGK(Dnp)-CONH2); test: In vitro sortase kinetics HPLC assay, LPETG substrate
Method in brief: as §1

[4] = tested on: LAETG (Abz-LAETGK(Dnp)-CONH2); test: In vitro sortase kinetics HPLC assay, LAETG substrate
Method in brief: as §1

[5] = GGG varied, substrate 2A (LAETG)

B1: eSrtA(2A-9): P94R, S102C, A104H, E105D, K138P, K152I, N160K, K162H, T164N, D165A, K173E, I182V, K190E, T196S (protein)
chain: QAKPQIPKDKSKVAGYIEIPDADIKEPVYPGPATREQLNRGVCFHDENESLDDQNISIAGHTFIDRPNYQFTNLKAAKPGSMVYFKVGNETRIYKMTSIRKVHPNAVEVLDEQEGKDKQLTLVTCDDYNEETGVWESRKIFVATEVK
activity on LPESG [1]: negligible activity
Kcat (Hz) ([1]; Sub LPESG, 100 mM GGG): 0.0066 ± 0.0006 Hz
Km ([1]; Sub LPESG, 100 mM GGG): 4800 ± 1200 µM
Rel. Activity ([1]; Sub LPESG, kcat/Km of the enzyme's preferred substrate relative to kcat/Km on this substrate): 5943
Kcat (Hz) ([1]; Table 2, Sub LPESG): 0.0066 ± 0.0006 Hz
Km ([1]; Table 2, Sub LPESG): 4800 ± 1200 µM
KH ([2]; 1 mM LSETG): 26.0 ± 3.4 µM
Km ([2]; 1 mM LSETG, read-out: Km,GGG): 1270 ± 200 µM
Kcat (Hz) ([2]; Sub LSETG, 100 mM GGG): 0.115 ± 0.007 Hz
Km ([2]; Sub LSETG, 100 mM GGG, read-out: Km): 331 ± 67 µM
KH ([3]; 1 mM LPETG): 27.1 ± 0.1 µM
KN ([3]; 1 mM LPETG, eight GGG concentrations): 27.1 ± 0.1 µM
Km ([3]; 1 mM LPETG, read-out: Km,GGG): 585 ± 3 µM
Avg kcat (Hz) ([3]; Example 5 variants, substrate wt (LPETG)): 0.02091 Hz
Km ([3]; Example 5 variants, substrate wt (LPETG), read-out: Avg KM): 1270 µM
KH,LPETG ([3]; LPETG substrate): 18.7 ± 3.3 µM
Kcat (Hz) ([3]; Sub LPETG, 100 mM GGG): 0.0209 ± 0.004 Hz
Km ([3]; Sub LPETG, 100 mM GGG, read-out: Km): 1270 ± 62 µM
Rel. Activity ([3]; Sub LPETG, kcat/Km of the enzyme's preferred substrate relative to kcat/Km on this substrate): 510
Kcat (Hz) ([3]; Table 2, Sub LPETG): 0.0209 ± 0.0004 Hz
Km ([3]; Table 2, Sub LPETG, read-out: Km): 1270 ± 62 µM
activity on LPETG ([3]; round 9 clones): minimally active on LPETG
preference for LAETG over LPESG [4]: > 1000 :1
KH ([4]; 1 mM LAETG): 33 ± 4 µM
KN ([4]; 1 mM LAETG, eight GGG concentrations): 33 ± 4 µM
Km ([4]; 1 mM LAETG, read-out: Km,GGG): 1480 ± 190 µM
Avg kcat (Hz) ([4]; Example 5 variants, substrate 2A (LAETG)): 2.23 Hz
Km ([4]; Example 5 variants, substrate 2A (LAETG), read-out: Avg KM): 265 µM
Avg kHydro (Hz) [4, 5]: 0.03506 Hz
Avg kcat (Hz) [4, 5]: 1.587 Hz
Km ([4]; KM for GGG, substrate 2A (LAETG), read-out: Avg KM): 1480 µM
Kcat (Hz) ([4]; Sub LAETG, 100 mM GGG): 2.23 ± 0.02 Hz
Km ([4]; Sub LAETG, 100 mM GGG, read-out: Km): 265 ± 9 µM
Rel. Activity ([4]; Sub LAETG, kcat/Km of the enzyme's preferred substrate relative to kcat/Km on this substrate): 1
Kcat (Hz) ([4]; Table 2, Sub LAETG): 2.23 ± 0.02 Hz
Km ([4]; Table 2, Sub LAETG, read-out: Km): 265 ± 9 µM
change in specificity for LAETG versus LPETG relative to eSrtA ([4]; ratio of (kcat/KM)target to (kcat/KM)LPETG, relative to eSrtA): 51,000 fold
preference for LAETG over LPETG ([4]; ratio of kcat/KM): ~500 fold and 510 fold
Specificity (relative catalytic efficiency, fold) ([4]; ratio of kcat/KM between 2A (LAETG) and wt (LPETG)): 509.8 fold
Avg KH ([4]; substrate 2A (LAETG)): 32.79 µM
